Numbered stars: 1 amine (or outer) side, 2 acyl side, 3 side chain; on linkers, the order of the positions; unused ones are H or OH. Bridge positions count the residues as written; N and C are the ends. Square brackets hold non-standard residues; d marks the D form. Side chains are listed from the residue outwards. Ends that are not written are not given here. Peptide text beside a SMILES is read from it. * marks the point of attachment. C20 diacid = O=C(O)CCCCCCCCCCCCCCCCCCC(=O)*; γGlu = O=C(O)[C@H](CCC(=O)[*:2])N[*:1]; Hyp = O=C(O)[C@@H]1C[C@@H](O)CN1; AEEA = NCCOCCOCC(=O)O
T1: hAMY3 receptor (Homo sapiens, UniProt O60896+P30988)
T1 sequence (P30988 25-474): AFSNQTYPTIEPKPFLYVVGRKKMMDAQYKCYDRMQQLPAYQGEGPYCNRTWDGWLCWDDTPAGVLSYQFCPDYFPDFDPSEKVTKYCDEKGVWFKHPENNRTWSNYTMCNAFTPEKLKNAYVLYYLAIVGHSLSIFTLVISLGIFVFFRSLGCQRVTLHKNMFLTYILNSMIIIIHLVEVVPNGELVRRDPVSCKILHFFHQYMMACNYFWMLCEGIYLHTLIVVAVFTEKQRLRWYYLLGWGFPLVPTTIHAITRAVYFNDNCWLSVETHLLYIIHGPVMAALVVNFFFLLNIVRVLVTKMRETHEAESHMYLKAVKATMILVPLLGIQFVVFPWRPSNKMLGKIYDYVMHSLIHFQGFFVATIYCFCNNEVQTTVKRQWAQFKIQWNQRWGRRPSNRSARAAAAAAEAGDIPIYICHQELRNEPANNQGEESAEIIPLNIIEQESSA
T1 sequence (O60896 24-148 partner): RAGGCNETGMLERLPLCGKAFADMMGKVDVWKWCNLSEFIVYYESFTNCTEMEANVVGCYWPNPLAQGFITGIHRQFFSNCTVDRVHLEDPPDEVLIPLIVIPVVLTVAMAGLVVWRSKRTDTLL

T2: hAMY3R (human, UniProt P30988)
T2 sequence 1: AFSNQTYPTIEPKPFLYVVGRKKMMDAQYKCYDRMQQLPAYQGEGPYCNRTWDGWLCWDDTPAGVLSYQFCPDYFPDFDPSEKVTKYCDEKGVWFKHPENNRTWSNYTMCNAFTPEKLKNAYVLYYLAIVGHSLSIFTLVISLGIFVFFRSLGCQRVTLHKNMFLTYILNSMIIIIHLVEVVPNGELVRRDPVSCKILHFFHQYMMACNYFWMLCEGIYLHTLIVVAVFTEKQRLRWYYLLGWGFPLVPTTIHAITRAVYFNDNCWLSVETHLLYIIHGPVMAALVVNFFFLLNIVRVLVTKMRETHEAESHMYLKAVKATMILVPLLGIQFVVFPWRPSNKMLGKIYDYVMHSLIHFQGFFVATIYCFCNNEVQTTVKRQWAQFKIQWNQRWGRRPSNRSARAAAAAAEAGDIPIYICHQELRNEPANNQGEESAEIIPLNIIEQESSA
T2 sequence 2: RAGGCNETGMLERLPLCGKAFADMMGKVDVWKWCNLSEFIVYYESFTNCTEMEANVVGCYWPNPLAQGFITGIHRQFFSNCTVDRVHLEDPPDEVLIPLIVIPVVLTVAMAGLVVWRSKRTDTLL


How the values were obtained:
hAMY3 receptor = target: T1, hAMY3 receptor; assay: cAMP assay for in vitro receptor activation, hAMY3-R; type: cell-based; conditions: cAMP assay, hAMY3 receptor; read-out: hAMY3R EC50
Procedure: General Protocols for cAMP Assays for Measuring In Vitro Receptor Activation
Cells stably overexpressing the hAMY3 receptor were obtained from Ogeda (now Astellas Pharma), sub-cloned and a monoclonal cell-line with an appropriate assay-window was expanded, aliquoted and frozen.
An aliquot was thawed and plated in DPBS with 0.05% casein and 0.5 mM IBMX as 2000 cells/well in a 384-well format. The cells were then immediately stimulated for 30 min at room temperature with graded doses of test compound using human amylin (Bachem, cat no. H-7905) as a positive control. cAMP accumulation was measured using a Cisbio assay for Gs coupled receptors (cat. no. 62AM4PEC), where the assay reagents were added as per the manufacturer's instructions and time-resolved fluorescence energy transfer recorded after one hour.

hAMY3R = target: T2, hAMY3R; assay: cell-based or functional assay
hAM1R = hAM1R (human, UniProt Q16602); assay: cell-based or functional assay

Row | Molecule | EC50 (hAMY3 receptor) [nM] | hAMY3R EC50 (cAMP) (hAMY3R) [nM] | hAM1R EC50 (cAMP) (hAM1R) [nM]
1 | CC[C@H](C)[C@H](NC(=O)[C@H](CCC(N)=O)NC(=O)[C@H](Cc1c[nH]cn1)NC(=O)[C@H](C)NC(=O)[C@H](CC(C)C)NC(=O)[C@H](CCCNC(=N)N)NC(=O)[C@H](CCC(N)=O)NC(=O)[C@@H](NC(=O)[C@@H](NC(=O)[C@@H]1CSSC[C@H](NC(=O)[C@@H](N)CCCCN)C(=O)N[C@@H](CC(N)=O)C(=O)N[C@@H](Cc2ccccc2)C(=O)N[C@@H](C)C(=O)N[C@@H]([C@@H](C)O)C(=O)N1)[C@@H](C)O)C(C)C)C(=O)N[C@@H](Cc1ccc(O)cc1)C(=O)N[C@@H](CCC(N)=O)C(=O)N[C@@H](Cc1ccccc1)C(=O)N[C@H](C(=O)N[C@@H](CC(=O)O)C(=O)N[C@@H](CCCCN)C(=O)N[C@@H](CC(=O)O)C(=O)N[C@@H](CCCCN)C(=O)N[C@@H](CC(=O)O)C(=O)N[C@@H](CC(N)=O)C(=O)N[C@H](C(=O)N[C@@H](C)C(=O)N1CCC[C@H]1C(=O)N[C@@H](CCCNC(=N)N)C(=O)N[C@H](C(=O)N[C@@H](CCCCN)C(=O)N[C@H](C(=O)NCC(=O)N[C@@H](CO)C(=O)N[C@@H](CC(N)=O)C(=O)NCC(=O)N1C[C@H](O)C[C@H]1C(N)=O)C(C)C)[C@@H](C)O)C(C)C)[C@@H](C)O [compound 3] (H-KCNFATCTVQRLAHQIYQFTDKDKDNVAPRTKVGSNG[Hyp]-NH2; disulfide 2-7) | 0.006 | – | –
2 | CC[C@H](C)[C@H](NC(=O)[C@H](CCC(N)=O)NC(=O)[C@H](Cc1c[nH]cn1)NC(=O)[C@H](C)NC(=O)[C@H](CC(C)C)NC(=O)[C@H](CCCNC(=N)N)NC(=O)[C@H](CCC(N)=O)NC(=O)[C@@H](NC(=O)[C@@H](NC(=O)[C@@H]1CSSC[C@H](NC(=O)[C@@H](N)CCCCN)C(=O)N[C@@H](CC(N)=O)C(=O)N[C@@H](Cc2ccccc2)C(=O)N[C@@H](C)C(=O)N[C@@H]([C@@H](C)O)C(=O)N1)[C@@H](C)O)C(C)C)C(=O)N[C@@H](Cc1ccc(O)cc1)C(=O)N[C@@H](CCC(N)=O)C(=O)N[C@@H](Cc1ccccc1)C(=O)N[C@H](C(=O)N[C@@H](CC(=O)O)C(=O)N[C@@H](CCCCN)C(=O)N[C@@H](CC(=O)O)C(=O)N[C@@H](CCCCN)C(=O)N[C@@H](CC(=O)O)C(=O)N[C@@H](CC(N)=O)C(=O)N[C@H](C(=O)N[C@@H](C)C(=O)N1CCC[C@H]1C(=O)N1CCC[C@H]1C(=O)N[C@H](C(=O)N[C@@H](CCC(=O)O)C(=O)N[C@H](C(=O)NCC(=O)N[C@@H](CO)C(=O)N[C@@H](CC(N)=O)C(=O)NCC(=O)N1C[C@H](O)C[C@H]1C(N)=O)C(C)C)[C@@H](C)O)C(C)C)[C@@H](C)O [compound 10] (H-KCNFATCTVQRLAHQIYQFTDKDKDNVAPPTEVGSNG[Hyp]-NH2; disulfide 2-7; N-terminus assumed) | 0.007 | – | –
3 | KCNTATCTVQRLAHQIYAFTDKDKDNVAPPTNVGSNG[Hyp]-NH2 (disulfide 2-7 (inferred); ends not checked) [SEQ ID NO: 42] | – | 0.01 | > 5000
4 | {C20 diacid-γGlu}-KCNTATCTVQRLAYQIYQFTDKDKDNVAPPTNVGSNG[Hyp]-NH2 (disulfide 2-7 (inferred); ends not checked) [SEQ ID NO: 47] | – | 0.011 | 500
5 | GCRTGTCTVQRLAHQIYQFTDKDKDNVAPRTNVGPQG[Hyp]-NH2 (disulfide 2-7 (inferred); ends not checked) [SEQ ID NO: 49] | – | 0.011 | 2980
6 | {C20 diacid-γGlu}-GCRFGTCTVQRLAHFLYQFTDKDKDNVAPRTKIGPQGY-NH2 (disulfide 2-7 (inferred); ends not checked) [SEQ ID NO: 390] | – | 0.048 | 0.889
7 | {C20 diacid-γGlu}-GCRFGTCTVQRLAHFLYQFTDKDKDNVAPRTKVGPQGY-NH2 (disulfide 2-7 (inferred); ends not checked) [SEQ ID NO: 392] | – | 0.113 | 5.03
8 | KCNTATCTVQRLAHQIYQFTDKAKDNVAPPTNVGSNG[Hyp]-NH2 (disulfide 2-7 (inferred); ends not checked) [SEQ ID NO: 43] | – | 0.01 | > 5000
9 | {C20 diacid-γGlu}-KCNTATCTVQRLAHQIYQYTDKDKDNVAPPTNVGSNG[Hyp]-NH2 (disulfide 2-7 (inferred); ends not checked) [SEQ ID NO: 48] | – | 0.011 | 761
10 | KCNTATCTVQRLAEQIYQFTDKDKDNVAPPYNEGSNG[Hyp]-NH2 (disulfide 2-7 (inferred); ends not checked) [SEQ ID NO: 44] | – | 0.01 | > 5000
11 | KCNTATCTVQRLAEQIYQFTDKDKDK([AEEA-AEEA-γGlu-C20 diacid])VAPPTNVGSNG[Hyp]-NH2 (disulfide 2-7 (inferred); not fully specified (N-terminus); ends not checked) [SEQ ID NO: 41] | – | 0.01 | > 5000
12 | GCRFGTCTVQRLAHQIYQFTDKDKDNVAPRTKIGPQGY [SEQ ID NO: 391] | – | 0.068 | 0.665
13 | GCRFGTCTVQRLAHQIYQFTDKDKDNVAPRTKVGPQG[Hyp]-NH2 (disulfide 2-7 (inferred); ends not checked) [SEQ ID NO: 45] | – | 0.011 | 50.5
14 | KCNTATCTVQRLAEQIYQFTDKDKK([AEEA-AEEA-γGlu-C20 diacid])NVAPPTNVGSNG[Hyp]-NH2 (disulfide 2-7 (inferred); not fully specified (N-terminus); ends not checked) [SEQ ID NO: 40] | – | 0.01 | > 5000
15 | GCRFGTCTVQRLAHQIYQFTDKDKDNVAPRTNIGPQG[Hyp]-NH2 (disulfide 2-7 (inferred); ends not checked) [SEQ ID NO: 46] | – | 0.011 | 78.5
